# Laboratory results: the DeepSol protein solubility set
# Assay: soluble on expression in E. coli; label from the status in PepcDB or PDB records
row,Sequence,soluble on expression in E. coli
1,MGSDKIHHHHHHMKVGVALSGGVDSAVALYLLLKEGHEVKAFHMKTKEDEFFIKKEIKKKVCCSPSDTADAMRIAHFLGVEIEIVDVKEIFREKVIEPFKRDLLKGLTPNPCAHCNRFVKFGYLMDYVLNQGFDAFASGHYARIEFSEKYGRKVIKKGVDLKKDQSYFLARIEPWRIERLIFPNGIYTKEEIRKIAEEAGIHVAKKQESQDVCFIPDGSIENFLKDEGITLKDGDIITPEGEVVGRHFGYPLYTIGQRKGFKIEKFGRRYYVRGKIPEKNVVVVSDLEDVFFSGLIAEDPVWHVEVPEEFRCVCRVRKKSEEAPAVVKVKDNEVEVSFEKKVFAVTPGQIAAFYDGDTLLGGAIIKEGIR,not soluble
2,MSLKIDAVDLFYLSMPEVTDAADGSQDALLVRVAAGGHIGWGECEAAPLPSIAAFVCPKSHGVCRPVSDSVLGQRLDGPDDIARIAALVGYNSMDLLQAPHMLSGIEMALWDLLGRRLSAPAWALLGYSASHGKRPYASLLFGDTPQETLERARAARRDGFAAVKFGWGPIGRGTVAADADQIMAAREGLGPDGDLMVDVGQIFGEDVEAAAARLPTLDAAGVLWLEEPFDAGALAAHAALAGRGARVRIAGGEAAHNFHMAQHLMDYGRIGFIQIDCGRIGGLGPAKRVADAAQARGITYVNHTFTSHLALSASLQPFAGLEADRICEYPAAPQQLALDITGDHIRPDAEGLIRAPEAPGLGLQVAASALRRYLVETEIRIGGQLIYRTPQLEGHHHHHH,soluble
3,GMKPLKEVVGAYLALSDAQRQLVAGEYDEAAANCRRAMEISHTMPPEEAFDHAGFDAFCHAGLAEALAGLRSFDEALHSADKALHYFNRRGELNQDEGKLWISAVYSRALALDGLGRGAEAMPEFKKVVEMIEERKGETPGKERMMEVAIDRIAQLGAS,soluble
4,MEAVLYVSHGSRIAAARHEAARFVEQCRRAIDIPIQELCFVELAEPDIVTGVDRCVAQGATRVIVVPLLLLSAGHAKHDIPAALDIARRRHPSVDILCGAPFGVHEAMIDIMIDRISEQSAPLDGESMILLVGRGSSDPDTKRDMSAIAALLKEKTNVPHVDVCFLAAIRPTLDEGLERAHASAYRRVFVVPYLLFTGVLMKTIERRLQGFSVSDKQWHLCSYLGDHPRLVLLIQQQVLSLSSVKKGA,soluble
5,MNVRDLSFKLNSIFDINKYEHIDKNLNGLQVGNINAKVNKVAFAVDASFSTLKEAKGNDFLITHHGIFWSKKERIVSNMYDKTKFLIENNLALYSVHLPMDAHSVYSHSKVFSDFLGLKNSFAFANYGGVNLGIIADSVFSFSEILEKIKKENKHILFSKKFKESVNKVAIVSGSGYSFFEEALCHDVDLFITGDTSHQIYSLAEEFGVNLIFAGHYFTETFGLIKLMEDFKIQEDLEVKFICKNTNLLEHHHHHH,not soluble
6,EGIPWEGNYTSWLEQKDARLQQEASQESARQKTIEKELEWVRKNPKGRQAKSKARMARFEELQNTEHQKRNETNELFIPPGER,soluble
7,MGSDKIHHHHHHMRQTFIARKISFISLIHFRDEYMSPQNNHLQRPPAAVLYADELAKLKQNDNAPCPPGWQLSLPAARAFILGDSAQNISRKVVISPSAVERMLVTLATGRGLMLVGEPGTAKSLLSELLATSISGDAGLTIQGGASTTEDQIKYGWNYALLINHGPSTEALVPAPLYQGMRDGKIVRFEEITRTPLEVQDCLLGMLSDRVMTVPELTGEASQLYAREGFNIIATANTRDRGVNEMSAALKRRFDFETVFPIMDFAQELELVASASARLLAHSGIPHKVPDAVLELLVRTFRDLRANGEKKTSMDTLTAIMSTAEAVNVAHAVGVRAWFLANRAGEPADLVDCIAGTIVKDNEEDRARLRRYFEQRVATHKEAHWQAYYQARHRLP,not soluble
8,MSSHTATKYDVFLSFRGHDTRHNFISFLYKELVRRSIRTFKDDKELENGQRFSPELKSPIEVSRFAVVVVSENYAASSWCLDELVTIMDFEKKGSITVMPIFYGVEPNHVRWQTGVLAEQFKKHASREDPEKVLKWRQALTNFAQLSGDCSGDDDSKLVDKIANEISNKKTIYATI,soluble
9,MGSDKIHHHHHHMVMMSKQLTAQAPVDPIVLGKMGSSYGIRGWLRVFSSTEDAESIFDYQPWFIQKAGQWQQVQLESWKHHNQDMIIKLKGVDDRDAANLLTNCEIVVDSSQLPQLEEGDYYWKDLMGCQVVTTEGYDLGKVVDMMETGSNDVLVIKANLKDAFGIKERLVPFLDGQVIKKVDLTTRSIEVDWDPGF,not soluble
10,GNQRKVSVVGAQSTMDVKDIKMPAASLSSAISGRIAGVVAVQRSGEPGHDESDIWIRGLSSLLGQSSSPLVLVDGVERSFNNIDPEDIESFTVLKDASATAVYGVRGANGVVIVKTKPGKVG,soluble
11,MAENKLGRDIPRKYANQYGVFEGELAHIKSYKESSRQVKPVKPSDDKLLSSIHEAIEKTRLKDGMTISFHHHFREGDYVMNMVLDEIAKMGIKDISIAPSSIANVHEPLIDHIKNGVVTNITSSGLRDKVGAAISEGIMENPVIIRSHGGRARAIATDDIHIDVAFLGAPSSDAYGNANGTRGKTTCGSLGYAMIDAKYADQVVIVTDTLVPYPNTPISIPQTDVDYIVVVDAIGDPEGIAKGATRYTKNPKELLIAEYAAKVITSSPYYKEGFSFQTGTGGASLAVTRFMREQMIKDDIKANFALGGITNAMVELLEEGLVDKILDVQDFDHPSAVSLDRNAEKHYEIDANMYASPLSKGSVINQLDICVLSALEVDTNFNVNVMTGSDGVIRGASGGHCDTAFAAKMSLVISPLVRGRIPTFVDKVNTVITPGTSVDVVVTEVGIAINPNRPDLIEYFKDLKVPQLTIEELKEKAYAIVGNPQPIQYGDKIVALIEYRDGSLIDVVRNVLEHHHHHH,soluble
12,TARELLDADRGRDSMVAAAYHSGTLSGKTVTEAARQGDVFAIEVFDDFAEWMGRALSIVCDVLDPGQIVIGGGLSTSSDLFLEKATQHMAQQIVGAGYRPLPTVVCAELGGDAGMIGVSDLARRRV,not soluble
13,MTEGKRLQQMELPQMKSIWIDEDQEMEKLYGFQVRQRFMNGPSTDSDEDADEDLGIVLVDSKKLALPNKNNIKLPPLPNYMTINPNINSNHKSLTNKKKNFLGMFKKKDLLSRRHGSAKTAKQSSISTPFDFHHISHANGKREDNPLESHEEKHDVESLVKFTSLAPQPRPDSNVSSKYSNVVMNDSSRIVSSSTIATTMDSHHDGNETNNTPNGNKQLDSPTDLEMTLEDLRNYTFPSVLGDSVSEKTNPSSPSVSSFSGKFKPRELSALHTPELGNCFNVDQSLNSPGNRISVDDVLKFYYQCSETSTPRNT,soluble
14,MGSDKIHHHHHHMPTLNQPQARFLALPHKFRAFVAGFGSGKTWVGGAGLCRHAWEFPRVNSGYFAPTYGQIRDIFYPTIEEVAHDWGLAAKINESNKEVHLFAGRKYRGTVICRSMEKPGDIVGFKIGKGLIDELDVMKADKAALAWRKIIARLRHTAPGLLNGVDVTTTPEGFKFVYQQFVKQVRERPELAALYGLVQASTYENGKNLPEDYIPSLRASYPPQLIAAYLRGQFTNLTSGSVYANFDRRLHHTDAAEEPHEELHIGMDFNVLNMTATVNVIRAGLPLTVGELTKVRDTPEMARMLKERFKDKGHGVTIYPDASGGNTSSKNASESDLSILRKAGFTVRVNSRNPSVKDRINAVNGMLLNDEGARRWLVNTDRCPTLTEALEQQVYDKNGEPDKSTGHDHPNDAQGYFLVHRYPITPTGMSRIKLTGT,not soluble
15,MVVVYVVKIGGSLTNNAVNLLENLKKLGEKVVIIPGGGNFANVVRNLHENEKINDISAHKLATMCTDITGTYFSEISGIKTADNLFDAKRILQNESIVIILPSNIILSTDELPCSWEVTSDSFAAYIAKLLNSKTLIIATDVDGIYDKYPEGKLLNTINTKTIKGFTSVDKHLPKLISEYGIKCFVVNGNHPERINNIFKGVVDTYTKITLKLEHHHHHH,not soluble
16,MGSDKIHHHHHHMAKSDLIVGLDIGTTKICCVVGEPTEEGIDIVGIGTSPSTGLRKGVVVNIEQTVQSIKKALEEAELMAGCEIRSVYAGIAGSHIKGANSDGVIAVKGGEVAPRDVERVLDAAKALNIPMDREVIHILPQEYIVDEQRGIADPLGMAGVRLEVKVHIVTGAVASAQNIVRSCHRSGLDVSDIVLEALASSKAVLTEEEREIGVALVDLGGGTTDIAVFANDSIKHTGVLALGGQNLTNDIAFGLRTPMASAEKIKIKYGCAMAEMVRDDEGIEVASVGDREPRRLSRQVLAEICEPRMEEILSLVDQELVRYGFKNMIGAGVVLTGGTALIEGCQELGEQIFNLPTRIGYPRNVGGLKDVVNSPKFATAVGLLCYGAEKEGLELKFRIRDGNMFNRVLSRMRKWFSDIS,not soluble
17,AWVDQTPRTATKETGESLTINCVLRDASFELKDTGWYRTKLGSTNEQSISIGGRYVETVNKGSKSFSLRISDLRVEDSGTYKCQAFYSLLLRDYNYSLLFRGEKGAGTALTVKAAA,soluble
18,MHTSELLKHIYDINLSYLLLAQRLIVQDKASAMFRLGINEEMATTLAALTLPQMVKLAETNQLVCHFRFDSHQTITQLTQDSRVDDLQQIHTGIMLSTRLLNDVNQPEEALRKKRA,soluble
19,MELRHIRYFLAVAEERHFTRAATKLGIGQPPLSQQIKDLERELGAQLFRRVPHGAELTEAGKAFYDVVKGMPATATRAVLAAQRVARGESGVLRVGFTASAAFNSVVPGAIRTFKRAYPDVRLQLEEGNTTQLADELNEGSLDVAFLRPGFTGNERFQLRLLSEEPMVIVLAETHPAAACKQIALSILKDEFFLLFPREIGLSLYDAVIKACGKAGFEPKIGQLVPQISSVINLVSAEMGVSMVPDSMRQVNVKGVVYRPVADQMPVAKLALAYRRGDTSPTLRNFILKVTG,not soluble
20,MAHHHHHHMRKKMKTLHLTGKKNFLFQNMQLRLYKEAPPKVFNKKSSHSSLWIQRQITDRYVLKAKNDNYRSRAAYKLIELDNKYMFLKKNKTILDIGCYPGSWCQVILERTKNYSNEIIGIDKKIMDPLPNIHFIHAEIGGAKDNPNDSNLVDVKLREILQGKKVDIILSDAAVPCVGNKIDDHMNSCELTLGITNFMEQYINMGGTYVVKMYLGSQTDNLKTYLKTIFQFVNTTKPKASRRESREIYLVCRNFLGRKKIGEDVQVKGAFSLKEGYY,not soluble
21,MTETRKKPDPIDVYVGTRIRLRRNILGLTQEKLGEKLGITFQQIQKYEKGTNRIGASRLQAIAEIMDVPVSYFFDKGVGTQQVEGFAESDNDFMDFCSSSEGIQLMRAFTNISDSKVRRKIIDLAKALSEEEDLTNKL,not soluble
22,GHHHHHHHHHHSSGHISGDAMEDKQERANYEKLQQKFQMLMSKHQAHVRPQFESLEKINKDIVGWIKLSGTSLNYPVLQGKTNHDYLNLDFEREHRRKGSIFMDFRNELKNLNHNTILYGHHVGDNTMFDVLEDYLKQSFYEKHKIIEFDNKYGKYQLQVFSAYKTTTKDNYIRTDFENDQDYQQFLDETKRKSVINSDVNVTVKDRIMTLSTCEDAYSETTKRIVVVAKIIKVS,soluble
23,MGLRNENGIVVYPLINGAYRVAASDNYTSNFGLEWNTFQKTQIDKFSGNTVSEERLFAQTNWQKNGLEGETILEVGSGAGRFSQIMLDHTKATLYSVDYSEAVEANYRNNGPHERFKLFQASIYELPFKQASFDRVICLGVLQHTPDFKASVKALVEMVKPGGELVIDFYPIRNVFTKVHGKYLLRPILKRVNHHRLMSLIRNNIDFLISIYTFNRRIGLGVFNRFVPICEIERTLPKGMTPEQLKEWIILDTFDMFSPEYDQPQRLSTVAKWVKEFGMADVDASWVTYHGLEHHHHHH,not soluble
